The source of these data is PMC7980507 (Protein Science : A Publication of the Protein Society, 2021).

This assay concerns the target His‐tagged SARS‐CoV‐2 spike receptor binding domain (RBD) (SARS-CoV-2, UniProt P0DTC2). Nature of the assay: BLI. In general terms: In BLI a coated tip is dipped into the sample, and binding shifts an interference pattern.

B1: EY6A (antibody, V domains shown)
VH: EVQLVESGGGVVQPGRSLRLSCAASAFTFSSYDMHWVRQAPGKGLEWVAVISYDGSNKYYADSVKGRFTISRDNSKNTLYLQMNSLRAEDTAVYYCAKDGGKLWVYYFDYWGQGTLVTVSS
VL: not shown
Regarding B1, the binding result is “binds”.

B2: CB6 (antibody, V domains shown)
VH: EVQLVESGGGLVQPGGSLRLSCAASGFTVSSNYMSWVRQAPGKGLEWVSVIYSGGSTFYADSVKGRFTISRDNSMNTLFLQMNSLRAEDTAVYYCARVLPMYGDYLDYWGQGTLVTVSS
VL: not shown
Take B2: the binding result was “binds”.
